The values below come from patent US20110008326A1 (published 2011).

The assay addresses T1, Human, recombinant IL-4R-Fc protein (human, UniProt P24394 26-232).
T1 construct: also called immobilized receptor
T1 sequence: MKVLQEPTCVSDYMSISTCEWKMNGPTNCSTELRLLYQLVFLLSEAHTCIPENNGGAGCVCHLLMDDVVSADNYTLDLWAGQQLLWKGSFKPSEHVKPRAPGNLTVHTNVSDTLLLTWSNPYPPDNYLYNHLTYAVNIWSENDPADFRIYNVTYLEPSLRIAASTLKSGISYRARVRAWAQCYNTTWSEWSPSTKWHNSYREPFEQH
Put plainly: competition ELISA on IL-4R-Fc coated plates; competitor: 10 ng/ml mouse antibody X2/45. In general terms: In an ELISA, binding on a coated surface is turned into a signal by an enzyme label.

Protocol: Human, recombinant IL-4R-Fc protein was immobilized on ELISA plates at 100 ng/well followed by blocking of free binding sites.

B1: humanised anti-IL-4R antibody (variable regions SEQ ID NOs: 13 and 14) (antibody, V domains shown)
VH: EVQLVESGGGLVKPGGSLRLSCAASGFTFNTNAMNWVRQAPGKGLEWVARIRSKSNNYATYYADSVKDRFTLSRDDSKNTLYLQMNSLKTEDTAVYYCTRDRGWGAMDYWGQGTTVTVSS
VL: DIQMTQSPSSLSASVGDRVTITCSASQDINNYLNWYQQKPGKAPKLLIYYTSSLHSGVPSRFSGSGSGTDFTLTISSLQPEDFATYYCQQFSNLPWTFGGGTKLEIK
notes: Full length antibody made in Hek 293T cells; light chain of kappa type; also called humanised antibody; humanised version of X2/45
Regarding B1, the binding result is recorded as “binds”.
